This is an account of results in US20230094463.

The target in this series is Human Galectin-3 protein (Acro Biosystems, GA3-H5129). The series can be described thus: blocking ELISA (Gal3 coated; antibody 3 µg/mL + INSR).

B1: 15G7.2A7 (protein)
chain 1: EVQLQQSGPELVKPGASVKISCKASGYTFTDYYMNWVKQSHGKSLEWIGDINPNNGGTNYNQKFKGKATLTVDKSSSTAYMELRSLTSEDSAVYYCTSGYGFPYWGQGTLVTVSA
chain 2: DIQMNQSPSSLSASLGDTISITCRASQNINIWLSWYQQKPGNIPQLLIYKASNLHTGVPSRFSGSGSGTDFTLTISSLQPEDIATYYCLQGQSYPLTFGAGTKLVMK
With B1, the “reduction of Gal3-INSR assembly (%)” value is “reduced assembly of Gal3 and INSR by greater than 99% at 3 µg/mL”.
